Where two headings read alike, the source gives them in different places.

In assay [1] the target is T1, Human ANGPTL4(26-406)-FLAG-His6-Avi (human, UniProt Q9BY76 24-406, biotin on the C-terminal Avi tag in the biotinylated preparations (immobilised form in SET, ELISA and Octet)).
T1 sequence: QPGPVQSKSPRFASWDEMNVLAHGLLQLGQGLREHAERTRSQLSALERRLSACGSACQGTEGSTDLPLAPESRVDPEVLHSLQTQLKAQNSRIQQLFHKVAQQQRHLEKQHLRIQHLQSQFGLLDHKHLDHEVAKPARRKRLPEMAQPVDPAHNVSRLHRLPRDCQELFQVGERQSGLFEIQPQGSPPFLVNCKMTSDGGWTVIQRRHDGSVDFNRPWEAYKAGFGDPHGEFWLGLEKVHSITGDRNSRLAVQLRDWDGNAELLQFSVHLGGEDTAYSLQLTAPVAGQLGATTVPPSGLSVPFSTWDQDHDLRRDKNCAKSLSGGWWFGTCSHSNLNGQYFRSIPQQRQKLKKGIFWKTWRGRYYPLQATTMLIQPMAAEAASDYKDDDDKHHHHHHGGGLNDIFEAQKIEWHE
Kind of assay: cell-based or functional assay.

Assay [2] addresses T1, Human ANGPTL4(26-406)-FLAG-His6-Avi. Briefly: cell-based or functional assay. The source holds these as a separate data set.
Assay [3] concerns the target T2, Human ANGPTL3(17-460)-FLAG-His-Avi (human, UniProt Q9Y5C1 17-460, biotin on the C-terminal Avi tag).
T2 construct: also called full length human ANGPTL3; hANGPTL3
T2 sequence: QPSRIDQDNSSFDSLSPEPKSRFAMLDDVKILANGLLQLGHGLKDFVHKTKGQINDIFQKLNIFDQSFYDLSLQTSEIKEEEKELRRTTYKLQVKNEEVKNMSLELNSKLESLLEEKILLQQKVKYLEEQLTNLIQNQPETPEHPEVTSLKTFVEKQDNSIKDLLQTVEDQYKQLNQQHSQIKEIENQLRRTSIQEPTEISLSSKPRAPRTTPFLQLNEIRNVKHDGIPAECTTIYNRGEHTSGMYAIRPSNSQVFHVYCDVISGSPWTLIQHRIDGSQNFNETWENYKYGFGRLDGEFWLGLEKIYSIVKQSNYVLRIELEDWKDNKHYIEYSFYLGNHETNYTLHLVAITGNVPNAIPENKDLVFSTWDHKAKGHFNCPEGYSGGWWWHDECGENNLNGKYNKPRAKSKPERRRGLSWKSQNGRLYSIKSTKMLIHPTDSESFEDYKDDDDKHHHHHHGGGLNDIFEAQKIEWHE
Briefly: direct ELISA on streptavidin-coated MSD plate: biotinylated antigen immobilised at 1 nM, antibody at 1 nM, detection with Sulfo-tagged goat anti-human IgG. How it is done: Direct ELISA assays were conducted to characterize antibody binding specificity of selected antibodies of the invention. The assay was performed as follows. A 384-well streptavidin-coated Meso Scale Discovery (MSD) plate was blocked by incubating the plate with 50 μL Blocking Buffer (PBS, pH 7.4, 5% w/v bovine serum albumin) per well at 22° C. for 1 hour with constant shaking (600 rpm). The blocked MSD plate was then washed 3 times with Wash Buffer (PBS, pH 7.4 and 0.05% v/v Tween-20) using a plate washer (BioTek). Following washing, biotinylated human ANGPTL4 proteins diluted in Assay Buffer (PBS, pH 7.4 without CaCl₂ or MgCl₂, 0.5% w/v fatty acid-free bovine serum albumin and 0.02% v/v Tween-20) were immobilized on the surface by incubation at 1 nM concentration (15 μL per well) at 22° C. for one hour: full length human ANGPTL4 (hANGPTL4), human ANGPTL4 coiled-coil domain (hANGPTL4-CCD) and full length human ANGPTL3 (hANGPTL3). The plate was then washed 3 times as described earlier. Antibody diluted to 1 nM concentration in Assay Buffer was then applied to the MSD plate […], and the plate was incubated for 1 hour at 22° C. with constant shaking (600 rpm). Bound antibodies were detected by adding 15 μL per well of a 1:500 dilution of Sulfo-tagged goat anti-human IgG. The plate was then incubated for one hour with constant shaking (600 rpm). The plate was washed 3 times, and then 15 μL/well of 1×MSD read buffer T was added and the plate was developed using a Sector Imager 6000 (Meso Scale Discovery). The data were transferred to Microsoft Excel for analysis and plotted using GraphPad Prism v6. […] An ANGPTL3-specific reference antibody was used as a positive control for the ANGPTL3 binding assay (FIG. 2).

The target in assay [4] is T1, Human ANGPTL4(26-406)-FLAG-His6-Avi. Kind of assay: cell-based or functional assay. This is another data set of the same source.
The target in assay [5] is T3, ANGPTL4-derived peptide P32 (human).
T3 peptide: LFHKVAQQQRHLEKQ
Briefly: peptide array, immobilised linear 15-mers. The procedure: (§1) The ability of selected antibodies of invention, namely MOR022765 and MOR022770, to bind to linear 15-amino-acid peptides derived from the N-terminal coiled coil domain of human ANGPTL4 was tested. The peptides were immobilized on a glass surface, and the ability of MOR022765 and MOR022770 to bind to the immobilized peptides was evaluated using experimental methods optimized for linear peptide epitope mapping at JPT Peptide Technologies (Berlin, Germany).

For assay [6], the target named is T4, ANGPTL4-derived peptide P6 (human).
T4 peptide: MNVLAHGLLQLGQGL
Briefly: peptide array, immobilised linear 15-mers. How it is done: as §1

The target of assay [7] is T5, ANGPTL4-derived peptide P13 (human).
T5 construct: printed with S where human ANGPTL4 has C
T5 peptide: TRSQLSALERRLSAS
Briefly: peptide array, immobilised linear 15-mers. The procedure:
as §1

The target in assay [8] is T6, ANGPTL4-derived peptide P22 (human).
T6 peptide: LPLAPESRVDPEVLH
Briefly: peptide array, immobilised linear 15-mers. The procedure: as §1

Assay [9] concerns the target T7, ANGPTL4-derived peptide P9 (human).
T7 peptide: QLGQGLREHAERTRS
Kind of assay: peptide array, immobilised linear 15-mers. How it is done:
as §1

The target of assay [10] is T8, ANGPTL4-derived peptide P19 (human).
T8 construct: printed with S where human ANGPTL4 has C
T8 peptide: SQGTEGSTDLPLAPE
Briefly: peptide array, immobilised linear 15-mers. How it is done:
as §1

Assay [11] has as its target T9, ANGPTL4-derived peptide P14 (human).
T9 construct: printed with S where human ANGPTL4 has C
T9 peptide: QLSALERRLSASGSA
Briefly: peptide array, immobilised linear 15-mers. The procedure:
as §1

Assay [12] concerns the target T10, ANGPTL4-derived peptide P7 (human).
T10 peptide: LAHGLLQLGQGLREH
Kind of assay: peptide array, immobilised linear 15-mers. How it is done:
as §1

For assay [13], the target named is T1, Human ANGPTL4(26-406)-FLAG-His6-Avi. Briefly: cell-based or functional assay. This is another data set of the same source.

B1: MOR021798 (antibody, human IgG1, lambda, V domains shown)
VH: QVQLLESGGGLVQPGGSLRLSCAASGFTFSDYALHWVRQAPGKGLEWVSRISYMGSSTYYADSVKGRFTISRDNSKNTLYLQMNSLRAEDTAVYYCAREHYYSSPMGGVAVDNWGQGTLVTVSS
VL: DIVLTQPPSVSGAPGQRVTISCSGSSSNIGYNTVSWYQQLPGTAPKLLIYSNNIRPSGVPDRFSGSKSGTSASLAITGLQAEDEADYYCSSWDFLIKSLVFGGGTKLTVLG
notes: human IgG1
Regarding B1, the “Reversal of human ANGPTL4 inhibition of human LPL EC50” value in assay [1] turned out to be 2 nM. In assay [2], the “EC50 (read off the curve) [1(C]” value was around 3 nM. Further, in [3], the binding result was “no binding (tested: 1 nM)”.

B2: MOR022765 (antibody, human IgG1, lambda, V domains shown)
VH: EVQLVQSGAEVKKPGESLKISCKGSGYSFSTYWISWVRQMPGKGLEWMGIIDPSSSDTRYSPSFQGQVTISADKSISTAYLQWSSLKASDTAMYYCARVYGYVYMDVWGQGTLVTVSS
VL: SYELTQPLSVSVALGQTARITCSGDNLGKKYAYWYQQKPGQAPVLVIYDKTKRPSGIPERFSGSNSGNTATLTISRAQAGDEADYYCASYDWYSSSYVFGGGTKLTVLG
notes: human IgG1
As to B2, the “Reversal of human ANGPTL4 inhibition of human LPL EC50” value in assay [4] stood at 3 nM. The binding result in [5], in [6], in assay [7], in [8], in assay [9] and in assay [10] was “no binding” each time. In addition, the binding result in assay [11] and in [12] was “no binding” throughout.

B3: MOR021792 (antibody, human IgG1, lambda, V domains shown)
VH: QVQLLESGGGLVQPGGSLRLSCAASGFTFSDYAMDWVRQAPGKGLEWVSKISYDGSYTYYADSVKGRFTISRDNSKNTLYLQMNSLRAEDTAVYYCARPSMSYYIIPAGFDVWGQGTLVTVSS
VL: DIELTQPPSVSVSPGQTASITCSGDALGVKRASWYQQKPGQAPVLVIYKDNNRPSGIPERFSGSNSGNTATLTISGTQAEDEADYYCSVRTWSMNLYVFGGGTKLTVLG
B3: the “EC50 (read off the curve) [1(A]” value in assay [13] was in the range of 1 to 2 nM. Also, in assay [1], the “Reversal of human ANGPTL4 inhibition of human LPL EC50” value is 1 nM. In addition, the binding result in assay [3] is given as “no binding (tested: 1 nM)”.

The record behind these values is patent US20160108110A1 (Novartis, published 2016).
